The source of these data is US20230399394A1 (SUNSHINE GUOJIAN PHARMACEUTICAL SHANGHAI, published 2023).

As usually defined, the IC50 is the concentration at which inhibition is half-maximal. The low end stands for greater potency, the high end for weaker potency. As a reminder, the EC50 is the concentration giving half of the maximal effect. A lower EC50 goes with greater potency.

Test [1] has as its target T1, Human IL-33-his (human, UniProt O95760 112-270, biotinylated with EZ-Link NHS-Biotin where used as IL-33-his-biotin).
T1 construct: Used plain (SPR, cell assays) and biotinylated (ELISA); also called IL-33-his-biotin
T1 sequence: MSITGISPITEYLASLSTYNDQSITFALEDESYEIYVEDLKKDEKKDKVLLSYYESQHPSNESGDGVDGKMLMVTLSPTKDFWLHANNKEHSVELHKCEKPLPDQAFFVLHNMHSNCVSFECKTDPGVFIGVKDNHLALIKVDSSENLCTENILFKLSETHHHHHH
Nature of the test: competition ELISA, antibody mixed with IL-33-his-biotin, ST2 on plate; competitor ST2. How it is done:
ST2 is the only receptor for IL-33 that has been discovered so far. As a cytokine, IL-33 exerts its physiological function depending on ST2 signaling pathway, and the blocking activity of antibody can reflect the neutralizing activity thereof. The specific method was as follows: the plate was coated with 2 μg/ml ST2 PBS solution at 4° C. overnight; the plate was washed with PBST for 3 times, then the plated was blocked with 5% skim milk powder at 37° C. for 2 hours; the plate was washed with PBST for 3 times for later use. 20 ng/ml IL-33-his-biotin antigen diluted by 1% BSA was mixed with antibodies to be tested diluted by gradient with 1% BSA at 1:1 equal volume and incubated at 37° C. for […]. The mixture was added to a pre-coated ST2 plate and incubated at 37° C. for 1 h. The plate was washed with PBST for 3 times. HRP-labeled streptavidin secondary antibody was added at 1:8000 and incubated at 37° C. for 0.5 hours. After washing the plate with PBST for 3 times, the plate was patted on the absorbent paper to remove residual droplets as far as possible. 100 μl TMB was added to each well, and the plate was placed at room temperature (20±5° C.) for 5 minutes away from light; 50 μl 2M H₂SO₄ terminating solution was added to each well to terminate the substrate reaction. OD values were read at 450 nm on the microplate reader.
(An ELISA detects its analyte on a solid surface through an enzyme-linked reagent.)

The target in test [2] is T2, IL-33 mutant protein D68A (human, UniProt O95760 112-270).
T2 construct: Prokaryotic expression
T2 chain: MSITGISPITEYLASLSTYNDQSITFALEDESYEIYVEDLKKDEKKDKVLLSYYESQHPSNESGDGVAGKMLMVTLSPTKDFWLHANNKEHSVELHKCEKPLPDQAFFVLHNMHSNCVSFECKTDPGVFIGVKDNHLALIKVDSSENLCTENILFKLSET
Nature of the test: ELISA as Example 9; row D68A. How it is done:
(§1) SA protein was diluted to 2 μg/mL to coat ELISA plate at 100 μL/well overnight at 4° C. The plate was washed with PBST (PBS containing 0.05% Tween20) for 3 times, and blocked with 2% BSA prepared in PBS at 200 μL/well, at room temperature for 2 h. After the plate was washed twice with PBST, IL-33-his-biotin protein was diluted to 1 μg/mL with 1% BSA prepared in PBST, and was added to ELISA plate at 100 μL/well. The plate was incubated at room temperature for 1 h, and each monoclonal antibody was diluted with 1% BSA prepared in PBST in a 3-fold gradient. The highest concentration of antibody was 10 μg/mL, and the antibody was diluted for 12 gradients. Each diluted monoclonal antibody was added to ELISA wells with 100 μL/well, and the plate was incubated at room temperature for 1 h. Each sample was added to duplicate wells in parallel. The plate was washed with PBST for 3 times, and HRP-anti human IgG Fc secondary antibody prepared with PBST was diluted at an appropriate ratio, and was added to ELISA wells at 100 μL/well. […] Each reaction solution was shaken uniformly and OD450 nm was read on a microplate reader. The data was analyzed and EC₅₀ was calculated.
(§2) Subsequently, according to the experimental method of Example 9, the affinity of the above mutant proteins to 874F7-Hu1 was determined, and IL-33 proteins (WT-1, WT-2, WT-3, and WT-4) without any mutation were set as controls.

Test [3] addresses T3, IL-33 mutant protein V67A (human, UniProt O95760 112-270).
T3 construct: Prokaryotic expression
T3 chain: T2 chain with V67A, A68D
Nature of the test: ELISA as Example 9; row V67A. How it is done:
as §1, §2

For test [4], the target named is T4, IL-33 mutant protein S60A (human, UniProt O95760 112-270).
T4 construct: Prokaryotic expression; also called 560A
T4 chain: T2 chain with S60A, A68D
Nature of the test: ELISA as Example 9; row S60A against WT-1. The method, then: as §1, §2

Test [5] addresses T5, IL-33 mutant protein S52A (human, UniProt O95760 112-270).
T5 construct: Prokaryotic expression
T5 chain: T2 chain with S52A, A68D
Nature of the test: ELISA as Example 9; row S52A. The method, then: as §1, §2

The target of test [6] is T6, IL-33 mutant protein K45A (human, UniProt O95760 112-270).
T6 construct: Prokaryotic expression
T6 chain: T2 chain with K45A, A68D
Nature of the test: ELISA as Example 9; row K45A against WT-1. How it is done: as §1, §2

The target in test [7] is T4, IL-33 mutant protein S60A. Nature of the test: ELISA as Example 9; row S60A. The method, then:
as §1, §2

Where a chain is given by its changes, count along the chain named.

B1: 874F7 (antibody, V domains shown)
VH: QVQLKESGPGLVAPSHSLSITCNVSGFSLSKYGVHWIRQIPGRGLDWLGVLRAGGSTGYNSALMSRLSISKDSSKSQVFLKMNDLRTDDTAVYFCVRDHYYYSSYGGFVYWGQGTLVTVSA
VL: DIQMTQSPASQSASLGESVTITCLASQTIGAWLAWYRQQPGKSPQLLIYAATRLADGVPSRFSGSGSGTEFSFKINNLQAEDFVSYYCQQLDSSPYTFGGGTRLEM
notes: Murine hybridoma antibody purified on Protein G; also called murine antibody 874F7
In turn, B1 returned an IC50 in test [1] of 0.9 nM.

B2: 874F7-Hu1 (antibody, human IgG4 S228P, kappa)
heavy: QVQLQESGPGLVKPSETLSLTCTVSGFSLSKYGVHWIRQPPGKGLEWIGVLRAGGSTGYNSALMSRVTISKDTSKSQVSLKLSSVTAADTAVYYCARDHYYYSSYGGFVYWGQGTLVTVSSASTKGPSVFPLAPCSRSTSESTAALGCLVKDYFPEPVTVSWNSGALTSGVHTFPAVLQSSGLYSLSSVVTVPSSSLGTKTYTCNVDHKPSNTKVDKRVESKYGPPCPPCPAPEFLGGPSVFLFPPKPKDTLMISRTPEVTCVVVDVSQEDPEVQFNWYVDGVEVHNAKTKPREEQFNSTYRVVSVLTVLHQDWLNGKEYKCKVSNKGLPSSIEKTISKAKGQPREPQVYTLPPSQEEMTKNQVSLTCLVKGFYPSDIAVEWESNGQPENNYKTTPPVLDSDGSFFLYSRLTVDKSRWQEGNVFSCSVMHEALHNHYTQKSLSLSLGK
light: DIQMTQSPSSVSASVGDRVTITCLASQTIGAWLAWYQQKPGKSPKLLIYAATRLADGVPSRFSGSGSGTDFTLTISSLQPEDFATYYCQQLDSSPYTFGQGTKVEIKRTVAAPSVFIFPPSDEQLKSGTASVVCLLNNFYPREAKVQWKVDNALQSGNSQESVTEQDSKDSTYSLSSTLTLSKADYEKHKVYACEVTHQGLSSPVTKSFNRGEC
notes: also called 874F7-Hul; humanized antibody 874F7-Hu1
For the molecule B2, the 50% effective concentration (EC50) was 0.22 nM in test [2], 0.11 nM in test [3], 1.96 nM in test [5] and 5.31 nM in test [7]. In addition, the Affinity decline ratio in test [4] is 23.2 fold; in test [6], over 25 fold.
